Experimental data as given in article PMC7006624.

Tests used:
Assay in all cases: fluorescence polarization
[1] = target: CLIP-G (CLIP-tag-GCN4 bZIP fusion) (UniProt P03069); details: no added NaCl; amino-C6-T (second T of TTTT loop); 40 mM Tris-HCl, 20 mM acetic acid, 12.5 mM MgCl2, 1 mM DTT, 1 uM ZnCl2, 100 nM calf thymus DNA, 0.02% Tween 20, pH 8.0, 25 C, with or without 200 mM NaCl
[2] = test system: AZ-CLIP (AZP4-CLIP-tag fusion) (designed); details: no added NaCl; amino-C6-T (second T of TTTT loop); 40 mM Tris-HCl, 20 mM acetic acid, 12.5 mM MgCl2, 1 mM DTT, 1 uM ZnCl2, 100 nM calf thymus DNA, 0.02% Tween 20, pH 8.0, 25 C, with or without 200 mM NaCl
[3] = target: ZF-CLIP (zif268-CLIP-tag fusion) (UniProt P08046); details: amino-C6-T (second T of TTTT loop), 40 mM Tris-HCl, 20 mM acetic acid, 12.5 mM MgCl2, 1 mM DTT, 1 uM ZnCl2, 100 nM calf thymus DNA, 0.02% Tween 20, pH 8.0, 25 C, with or without 200 mM NaCl
ZF-CLIP (zif268-CLIP-tag fusion), sequence (P08046 other isoform, or with tags, fused parts or gaps): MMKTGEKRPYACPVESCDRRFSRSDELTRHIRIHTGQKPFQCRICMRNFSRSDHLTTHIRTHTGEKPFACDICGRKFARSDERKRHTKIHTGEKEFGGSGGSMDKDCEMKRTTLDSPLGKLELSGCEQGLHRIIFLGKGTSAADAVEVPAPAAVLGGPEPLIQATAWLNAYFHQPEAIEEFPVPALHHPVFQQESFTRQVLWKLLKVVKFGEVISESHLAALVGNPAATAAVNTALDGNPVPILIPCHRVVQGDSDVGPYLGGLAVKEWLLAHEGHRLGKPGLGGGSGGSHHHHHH

CGCGACGCCCACGCGCGTTTTCGCGCGTGGGCGTCGC [A488-ODN-ZF]
Kd [1]: > 1000 nM | Kd [2]: > 1000 nM | Kd [3]: 56 nM | Kd ([3]; no added NaCl): 8.1 nM

CGCGATGCCACGTAGCGTTTTCGCTACGTGGCATCGC [A488-ODN-AZ]
Kd [1]: > 1000 nM | Kd [2]: 74 nM | Kd ([3]; no added NaCl): > 1000 nM

CGTTCATGACTCATGAGTTTTCTCATGAGTCATGAAC [A488-ODN-AP]
Kd [1]: 5.1 nM | Kd ([3]; no added NaCl): > 1000 nM
